# In patent US20260250418A1 (BIOCYTOGEN PHARMACEUTICALS BEIJING, published 2026):
# Positions count from the first letter of the chain named.
# T1: monkey (Macaca fascicularis) HER3 on CHO-fasHER3 cells (monkey (Macaca fascicularis), UniProt P21860 20-643 (human entry))
# T1 construct: CHO-S cells transfected with fasHER3
# T1 chain: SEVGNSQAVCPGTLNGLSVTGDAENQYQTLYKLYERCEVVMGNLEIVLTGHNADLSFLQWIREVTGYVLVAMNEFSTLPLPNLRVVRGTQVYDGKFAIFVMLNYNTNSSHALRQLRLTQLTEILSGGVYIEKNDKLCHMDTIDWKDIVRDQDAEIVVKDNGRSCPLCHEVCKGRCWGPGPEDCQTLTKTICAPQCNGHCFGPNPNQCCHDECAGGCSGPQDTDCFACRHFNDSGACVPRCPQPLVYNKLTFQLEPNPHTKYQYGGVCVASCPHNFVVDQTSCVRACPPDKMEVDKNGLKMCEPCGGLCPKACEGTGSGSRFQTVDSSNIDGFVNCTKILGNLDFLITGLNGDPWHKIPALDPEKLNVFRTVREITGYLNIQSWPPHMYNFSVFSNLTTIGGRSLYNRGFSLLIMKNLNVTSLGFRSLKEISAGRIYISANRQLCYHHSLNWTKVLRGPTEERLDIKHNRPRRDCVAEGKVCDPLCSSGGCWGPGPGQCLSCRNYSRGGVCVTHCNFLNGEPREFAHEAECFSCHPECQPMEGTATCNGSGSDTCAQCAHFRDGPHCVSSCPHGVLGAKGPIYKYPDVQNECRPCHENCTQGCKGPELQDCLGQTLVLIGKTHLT
# T2: dog HER3 on CHO-dHER3 cells (dog, UniProt P21860 20-1342 (human entry))
# T2 construct: CHO-S cells transfected with dHER3
# T2 chain: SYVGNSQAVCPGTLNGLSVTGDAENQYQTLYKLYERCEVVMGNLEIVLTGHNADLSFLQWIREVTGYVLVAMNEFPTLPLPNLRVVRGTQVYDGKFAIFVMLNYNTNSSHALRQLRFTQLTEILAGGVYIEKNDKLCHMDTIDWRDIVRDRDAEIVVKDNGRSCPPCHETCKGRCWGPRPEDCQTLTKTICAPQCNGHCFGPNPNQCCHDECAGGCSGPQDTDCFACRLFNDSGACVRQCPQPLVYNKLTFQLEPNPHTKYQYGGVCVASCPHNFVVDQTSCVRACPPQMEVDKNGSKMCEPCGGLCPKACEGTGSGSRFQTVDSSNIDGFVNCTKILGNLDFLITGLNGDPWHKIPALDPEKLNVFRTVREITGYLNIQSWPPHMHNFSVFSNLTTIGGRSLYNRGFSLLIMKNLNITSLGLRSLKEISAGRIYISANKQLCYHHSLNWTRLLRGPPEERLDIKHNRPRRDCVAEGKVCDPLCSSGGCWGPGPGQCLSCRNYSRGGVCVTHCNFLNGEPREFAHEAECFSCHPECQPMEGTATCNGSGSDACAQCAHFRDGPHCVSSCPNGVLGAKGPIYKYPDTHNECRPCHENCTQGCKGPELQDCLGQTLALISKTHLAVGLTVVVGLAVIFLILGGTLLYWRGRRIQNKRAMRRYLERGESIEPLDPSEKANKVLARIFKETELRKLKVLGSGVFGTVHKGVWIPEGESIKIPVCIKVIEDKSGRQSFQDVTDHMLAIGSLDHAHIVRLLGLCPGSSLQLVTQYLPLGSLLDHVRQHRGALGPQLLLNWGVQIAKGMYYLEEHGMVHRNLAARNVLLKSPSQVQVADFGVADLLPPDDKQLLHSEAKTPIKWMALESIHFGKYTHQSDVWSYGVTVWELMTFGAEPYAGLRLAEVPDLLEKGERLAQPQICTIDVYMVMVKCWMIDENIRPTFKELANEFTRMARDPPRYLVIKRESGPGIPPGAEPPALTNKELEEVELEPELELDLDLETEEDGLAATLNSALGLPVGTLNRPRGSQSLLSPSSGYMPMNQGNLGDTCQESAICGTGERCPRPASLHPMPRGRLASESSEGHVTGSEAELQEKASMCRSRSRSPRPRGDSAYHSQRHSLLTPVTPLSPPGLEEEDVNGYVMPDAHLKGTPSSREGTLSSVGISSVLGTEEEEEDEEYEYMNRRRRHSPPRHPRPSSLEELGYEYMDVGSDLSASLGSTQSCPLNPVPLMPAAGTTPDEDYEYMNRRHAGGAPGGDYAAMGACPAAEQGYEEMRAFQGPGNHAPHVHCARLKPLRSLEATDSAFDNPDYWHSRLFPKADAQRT
# B1: anti-HER3 antibody 3G6 (antibody, V domains shown)
# VH: QVQLVQSGPVLVKPTETLTLTCTVSGFSLSNIRMGVSWIRQPPGKALEWLAHIFSNDDKSYSTSLKSRLTISKDTSKSQVVLTMTNVDPVDTATYYCTRMRYSGGPFDYWGQGTLVTVSS
# VL: not shown
# notes: common light chain
# B2: anti-HER3 antibody 3E1 (antibody, V domains shown)
# VH: B1 VH with Q1E, V12A, T63P, S67N, N86T, V87M, V90M, R101K
# VL: not shown
# notes: common light chain
# B3: anti-HER3 antibody 1B2 (antibody, V domains shown)
# VH: B1 VH with G26T, I32A, T63P, S78T, V87M, T98S, T114S
# VL: not shown
# notes: common light chain
# B4: anti-HER3 antibody 1C5 (antibody, V domains shown)
# VH: QVQLVESGGGVVQPGKSLRLSCAASGFTFSRSGMHWVRQAPGKGLEWVALISFDGSNKYYADSVKGRFTISRDNSKNTLNLQMNSLRAEDTAVYYCAKGGFGVVIYDAFDIWGHGTMVTVSS
# VL: not shown
# notes: common light chain
# Molecular target: T1, monkey (Macaca fascicularis) HER3 on …
# Test: flow cytometry, transfected CHO cells
# Experimental: (§1) CHO-hHER3 cells, CHO-mHER3 cells, CHO-fasHER3 cells or CHO-dHER3 cells were transferred to a 96-well plate at a density of 5×10⁴ cells/well respectively. The anti-HER3 antibodies were added to the 96-well plate, and incubated at 4° C. for 30 min.
row,Percentage of Positive Cells [%],Binder
1,65.6,B1
2,69.4,B2
3,69,B3
4,72.8,B4

# Molecular target: T2, dog HER3 on CHO-dHER3 cells
# Test: flow cytometry, transfected CHO cells
# Experimental: as §1
row,Percentage of Positive Cells [%],Binder
1,29.8,B1
2,13.2,B2
3,32.1,B3
4,33.1,B4

# Molecular target: T3, mouse HER3 on CHO-mHER3 cells (mouse, UniProt Q61526 20-641)
# T3 construct: CHO-S cells transfected with mHER3
# T3 sequence (Q61526 20-641): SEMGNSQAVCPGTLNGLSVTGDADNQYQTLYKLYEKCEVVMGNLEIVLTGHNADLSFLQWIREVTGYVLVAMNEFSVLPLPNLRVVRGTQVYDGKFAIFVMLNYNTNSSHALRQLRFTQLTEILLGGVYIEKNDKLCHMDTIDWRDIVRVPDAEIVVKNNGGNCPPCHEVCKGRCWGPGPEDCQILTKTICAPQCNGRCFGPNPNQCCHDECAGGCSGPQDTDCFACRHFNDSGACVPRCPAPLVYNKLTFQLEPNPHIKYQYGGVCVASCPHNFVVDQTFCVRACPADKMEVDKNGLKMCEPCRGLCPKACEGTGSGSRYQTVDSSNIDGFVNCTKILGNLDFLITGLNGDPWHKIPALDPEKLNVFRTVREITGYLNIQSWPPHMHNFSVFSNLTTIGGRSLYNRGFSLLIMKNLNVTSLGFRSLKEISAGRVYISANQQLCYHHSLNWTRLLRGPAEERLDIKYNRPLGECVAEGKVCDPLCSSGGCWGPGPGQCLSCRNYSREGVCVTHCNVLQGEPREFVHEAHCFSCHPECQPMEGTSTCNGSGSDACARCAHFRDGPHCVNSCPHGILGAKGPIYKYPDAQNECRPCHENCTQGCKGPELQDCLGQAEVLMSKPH
# Test: flow cytometry, transfected CHO cells
# Experimental: as §1
Percentage of Positive Cells [%],binding result,Binder
15.2,–,B1
23,–,B2
22.4,–,B3
3.4,no binding,B4
